Publication PMC7612055 (Nature chemistry, 2021)

Target: proteasome αΔ12-subunit (Thermoplasma acidophilum, UniProt P25156 13-233)
Assay: native gel or EMSA

proteasome αΔ12-subunit, sequence (P25156 13-233, stated change not applied): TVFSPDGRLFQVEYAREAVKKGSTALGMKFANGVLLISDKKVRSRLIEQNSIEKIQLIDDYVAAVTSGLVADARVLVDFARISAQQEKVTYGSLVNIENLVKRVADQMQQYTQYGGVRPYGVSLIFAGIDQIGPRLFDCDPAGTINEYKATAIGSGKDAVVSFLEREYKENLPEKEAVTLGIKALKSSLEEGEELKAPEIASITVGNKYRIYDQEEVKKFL

B1: proteasome β-subunit (natural protein)
chain: TTTVGITLKDAVIMATERRVTMENFIMHKNGKKLFQIDTYTGMTIAGLVGDAQVLVRYMKAELELYRLQRRVNMPIEAVATLLSNMLNQVKYMPYMVQLLVGGIDTAPHVFSIDAAGGSVEDIYASTGSGSPFVYGVLESQYSEKMTVDEGVDLVIRAISAAKQRDSASGGMIDVAVITRKDGYVQLPTDQIESRIRKLGLIL
binding result: binds
